Experimental data: the supplement of paper PMC9112550, “Optimization of the antimicrobial peptide Bac7 by deep mutational scanning” (BMC Biology, 2022)

Tested on: Escherichia coli TOP10
Experiment: shrunken log2 fold change of peptide-encoding DNA abundance (4.5 h post-induction vs induction); higher = less antimicrobial activity (less host growth inhibition)
Settings: time post-induction: 4.5 h; library: site-saturation at positions 5, 18, 19, 20
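Note: peptides expressed intracellularly from a pBAD plasmid library in pooled LB shake-flask culture, induced with 0.3% L-arabinose, DNA abundance read by NGS, three biological replicates, DESeq2 with apeglm shrinkage.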

| Sequence | shrunken log2 fold change |
| --- | --- |
| RRIRVRPPRLPRPRPRPTIHPRP | -0.239 |
| RRIRNRPPRLPRPRPRPPVNPRP | -0.249 |
| RRIRDRPPRLPRPRPRPKHMPRP | -0.192 |
| RRIRGRPPRLPRPRPRPDFTPRP | 0.22 |
| RRIRSRPPRLPRPRPRPRRRPRP | 0.312 |
| RRIRHRPPRLPRPRPRPLMTPRP | -0.192 |
| RRIRLRPPRLPRPRPRPFGSPRP | -0.0744 |
| RRIRWRPPRLPRPRPRPADCPRP | -0.00218 |
| RRIRTRPPRLPRPRPRPHPVPRP | 0.1 |
| RRIRPRPPRLPRPRPRPFWGPRP | -0.0925 |
| RRIRFRPPRLPRPRPRPFLDPRP | -0.169 |
| RRIRPRPPRLPRPRPRPHFDPRP | -0.0993 |
| RRIRQRPPRLPRPRPRPEPIPRP | 0.047 |
| RRIRNRPPRLPRPRPRPRETPRP | -0.0277 |
| RRIRKRPPRLPRPRPRPRFIPRP | 0.346 |
| RRIRRRPPRLPRPRPRPLTGPRP | 0.0456 |
| RRIRHRPPRLPRPRPRPGKCPRP | -0.00911 |
| RRIRRRPPRLPRPRPRPSDYPRP | -0.185 |
| RRIRVRPPRLPRPRPRPKKIPRP | 0.0852 |
| RRIRQRPPRLPRPRPRPAPIPRP | 0.34 |
| RRIRMRPPRLPRPRPRPMIIPRP | -0.117 |
| RRIRRRPPRLPRPRPRPLDWPRP | 0.297 |
| RRIRGRPPRLPRPRPRPFKIPRP | 0.0381 |
| RRIRMRPPRLPRPRPRPFPKPRP | 0.385 |
| RRIRSRPPRLPRPRPRPDRFPRP | -0.0456 |

| Sequence | shrunken log2 fold change |
| --- | --- |
| RRIRVRPPRLPRPRPRPFQWPRP | -0.126 |
| RRIRIRPPRLPRPRPRPPWNPRP | -0.403 |
| RRIRFRPPRLPRPRPRPKCSPRP | -0.0194 |
| RRIRARPPRLPRPRPRPPCHPRP | 0.219 |
| RRIRARPPRLPRPRPRPQRFPRP | 0.0296 |
| RRIRARPPRLPRPRPRPFHNPRP | -0.625 |
| RRIRQRPPRLPRPRPRPTRYPRP | 0.511 |
| RRIRYRPPRLPRPRPRPMWDPRP | 0.0162 |
| RRIRHRPPRLPRPRPRPIYQPRP | -0.316 |
| RRIRVRPPRLPRPRPRPRRIPRP | -0.0306 |
| RRIRERPPRLPRPRPRPDSDPRP | -0.0703 |
| RRIRQRPPRLPRPRPRPFLPPRP | -0.0691 |
| RRIRLRPPRLPRPRPRPNLNPRP | -0.716 |
| RRIRCRPPRLPRPRPRPQEFPRP | -0.366 |
| RRIRWRPPRLPRPRPRPYYLPRP | -0.843 |
| RRIRGRPPRLPRPRPRPYSEPRP | -0.093 |
| RRIRQRPPRLPRPRPRPWPMPRP | -0.0342 |
| RRIRWRPPRLPRPRPRPMFSPRP | -0.0364 |
| RRIRVRPPRLPRPRPRPQHIPRP | -0.32 |
| RRIRRRPPRLPRPRPRPMAIPRP | 0.202 |
| RRIRERPPRLPRPRPRPTWGPRP | -0.0539 |
| RRIRTRPPRLPRPRPRPFPWPRP | -0.125 |
| RRIRNRPPRLPRPRPRPQWTPRP | -0.0119 |
| RRIRCRPPRLPRPRPRPECNPRP | -0.0881 |
| RRIRIRPPRLPRPRPRPIRKPRP | -0.0303 |

| Sequence | shrunken log2 fold change |
| --- | --- |
| RRIRVRPPRLPRPRPRPAFHPRP | -0.208 |
| RRIRRRPPRLPRPRPRPHPFPRP | 0.116 |
| RRIRPRPPRLPRPRPRPKDTPRP | -0.173 |
| RRIRWRPPRLPRPRPRPFCWPRP | 0.403 |
| RRIRNRPPRLPRPRPRPAFLPRP | -0.0726 |
| RRIRRRPPRLPRPRPRPSNQPRP | 0.00316 |
| RRIRFRPPRLPRPRPRPGAPPRP | 0.54 |
| RRIRDRPPRLPRPRPRPLADPRP | 0.0597 |
| RRIRDRPPRLPRPRPRPQEKPRP | 0.0105 |
| RRIRSRPPRLPRPRPRPQGHPRP | 0.00442 |
| RRIRWRPPRLPRPRPRPDCHPRP | -0.346 |
| RRIRGRPPRLPRPRPRPDDQPRP | 1.92 |
| RRIRQRPPRLPRPRPRPIKDPRP | -0.034 |
| RRIRPRPPRLPRPRPRPCLVPRP | -0.179 |
| RRIRHRPPRLPRPRPRPMDNPRP | -0.262 |
| RRIRIRPPRLPRPRPRPHRIPRP | 0.0122 |
| RRIRMRPPRLPRPRPRPWCMPRP | -0.0453 |
| RRIRCRPPRLPRPRPRPAWSPRP | 0.15 |
| RRIRCRPPRLPRPRPRPNWSPRP | -0.206 |
| RRIRQRPPRLPRPRPRPDKRPRP | 0.00102 |
| RRIRERPPRLPRPRPRPFYGPRP | 0.015 |
| RRIRHRPPRLPRPRPRPEGEPRP | 0.0139 |
| RRIRYRPPRLPRPRPRPYNAPRP | -0.471 |
| RRIRIRPPRLPRPRPRPLCLPRP | -0.736 |
| RRIRCRPPRLPRPRPRPMFMPRP | -0.246 |

| Sequence | shrunken log2 fold change |
| --- | --- |
| RRIRWRPPRLPRPRPRPHVPPRP | -0.161 |
| RRIRFRPPRLPRPRPRPGPAPRP | 0.544 |
| RRIRDRPPRLPRPRPRPECMPRP | 1.07 |
| RRIRMRPPRLPRPRPRPPEWPRP | 0.5 |
| RRIRKRPPRLPRPRPRPFQFPRP | -0.018 |
| RRIRGRPPRLPRPRPRPCDLPRP | 0.0268 |
| RRIRPRPPRLPRPRPRPWYRPRP | -0.601 |
| RRIRHRPPRLPRPRPRPFIDPRP | -0.121 |
| RRIRVRPPRLPRPRPRPGRPPRP | 0.63 |
| RRIRKRPPRLPRPRPRPLARPRP | 0.213 |
| RRIRIRPPRLPRPRPRPQDEPRP | 0.0381 |
| RRIRPRPPRLPRPRPRPHAAPRP | 0.3 |
| RRIRYRPPRLPRPRPRPPFMPRP | -0.422 |
| RRIRTRPPRLPRPRPRPTTAPRP | 0.0738 |
| RRIRKRPPRLPRPRPRPYVVPRP | -0.226 |
| RRIRHRPPRLPRPRPRPRYEPRP | -0.0765 |
| RRIRVRPPRLPRPRPRPWREPRP | 0.0932 |
| RRIRRRPPRLPRPRPRPKATPRP | 0.165 |
| RRIRWRPPRLPRPRPRPMGGPRP | 0.116 |
| RRIRGRPPRLPRPRPRPIIVPRP | -0.043 |
| RRIRLRPPRLPRPRPRPSKVPRP | -0.117 |
| RRIRRRPPRLPRPRPRPHYWPRP | 0.0315 |
| RRIRMRPPRLPRPRPRPDLVPRP | 1.01 |
| RRIRHRPPRLPRPRPRPLVCPRP | -9.35e-05 |
| RRIRCRPPRLPRPRPRPAMPPRP | -0.054 |

| Sequence | shrunken log2 fold change |
| --- | --- |
| RRIRWRPPRLPRPRPRPQKNPRP | 0.0916 |
| RRIRNRPPRLPRPRPRPFHIPRP | -0.0783 |
| RRIRMRPPRLPRPRPRPHYRPRP | -0.223 |
| RRIRARPPRLPRPRPRPIAIPRP | 0.0259 |
| RRIRTRPPRLPRPRPRPRADPRP | 0.158 |
| RRIRARPPRLPRPRPRPNLEPRP | 0.0621 |
| RRIRPRPPRLPRPRPRPHFFPRP | 0.118 |
| RRIRLRPPRLPRPRPRPASFPRP | -0.0339 |
| RRIRLRPPRLPRPRPRPCEYPRP | 0.0103 |
| RRIRMRPPRLPRPRPRPSEFPRP | -0.143 |
| RRIRSRPPRLPRPRPRPLEVPRP | -0.103 |
| RRIRKRPPRLPRPRPRPMRFPRP | 0.123 |
| RRIRCRPPRLPRPRPRPNVNPRP | -0.461 |
| RRIRARPPRLPRPRPRPCLSPRP | 0.233 |
| RRIRSRPPRLPRPRPRPSYAPRP | -0.835 |
| RRIRQRPPRLPRPRPRPDPAPRP | 0.0492 |
| RRIRNRPPRLPRPRPRPESEPRP | 0.0333 |
| RRIRKRPPRLPRPRPRPYWCPRP | -0.485 |
| RRIRERPPRLPRPRPRPDLMPRP | 0.0435 |
| RRIRQRPPRLPRPRPRPYIFPRP | -0.547 |
| RRIRGRPPRLPRPRPRPNIVPRP | 0.364 |
| RRIRLRPPRLPRPRPRPQEAPRP | 0.0514 |
| RRIRDRPPRLPRPRPRPSVGPRP | 0.217 |
| RRIRKRPPRLPRPRPRPKISPRP | -0.0246 |
| RRIRHRPPRLPRPRPRPDDKPRP | -0.359 |

| Sequence | shrunken log2 fold change |
| --- | --- |
| RRIRWRPPRLPRPRPRPIIWPRP | -0.269 |
| RRIRWRPPRLPRPRPRPYNFPRP | -0.58 |
| RRIRPRPPRLPRPRPRPMFRPRP | -0.119 |
| RRIRLRPPRLPRPRPRPIIIPRP | -0.302 |
| RRIRLRPPRLPRPRPRPAKCPRP | -0.0859 |
| RRIRWRPPRLPRPRPRPSSVPRP | 0.278 |
| RRIRERPPRLPRPRPRPYDNPRP | 0.033 |
| RRIRNRPPRLPRPRPRPWFPPRP | -0.223 |
| RRIRARPPRLPRPRPRPICCPRP | 0.316 |
| RRIRMRPPRLPRPRPRPVQMPRP | 0.247 |
| RRIRYRPPRLPRPRPRPHMEPRP | -0.249 |
| RRIRSRPPRLPRPRPRPCGDPRP | -0.0559 |
| RRIRYRPPRLPRPRPRPPAAPRP | 0.454 |
| RRIRQRPPRLPRPRPRPILKPRP | 0.14 |
| RRIRDRPPRLPRPRPRPQRPPRP | 0.0335 |
| RRIRQRPPRLPRPRPRPGKFPRP | -0.148 |
| RRIRCRPPRLPRPRPRPHNTPRP | -0.246 |
| RRIRYRPPRLPRPRPRPFLYPRP | -0.881 |
| RRIRQRPPRLPRPRPRPHNGPRP | -0.072 |
| RRIRYRPPRLPRPRPRPQKWPRP | -0.16 |
| RRIRSRPPRLPRPRPRPPWQPRP | 0.449 |
| RRIRVRPPRLPRPRPRPITDPRP | -0.069 |
| RRIRYRPPRLPRPRPRPIDWPRP | 0.0205 |
| RRIRSRPPRLPRPRPRPRYLPRP | -0.329 |
| RRIRARPPRLPRPRPRPKLNPRP | 0.16 |
